Assay results published in paper PMC11574045, “A cofactor-induced repressive type of transcription factor condensation can be induced by synthetic peptides to suppress tumorigenesis” (The EMBO Journal, 2024).

B1: ATF1 (protein, UniProt P18846 1-271, looked up)
Cyclic AMP-dependent …: MEDSHKSTTSETAPQPGSAVQGAHISHIAQQVSSLSESEESQDSSDSIGSSQKAHGILARRPSYRKILKDLSSEDTRGRKGDGENSGVSAAVTSMSVPTPIYQTSSGQYIAIAPNGALQLASPGTDGVQGLQTLTMTNSGSTQQGTTILQYAQTSDGQQILVPSNQVVVQTASGDMQTYQIRTTPSATSLPQTVVMTSPVTLTSQTTKTDDPQLKREIRLMKNREAARECRRKKKEYVKCLENRVAVLENQNKTLIEELKTLKDLYSNKSV
B2: MYNN (protein, UniProt Q9NPC7 1-610, looked up)
Myoneurin: MQYSHHCEHLLERLNKQREAGFLCDCTIVIGEFQFKAHRNVLASFSEYFGAIYRSTSENNVFLDQSQVKADGFQKLLEFIYTGTLNLDSWNVKEIHQAADYLKVEEVVTKCKIKMEDFAFIANPSSTEISSITGNIELNQQTCLLTLRDYNNREKSEVSTDLIQANPKQGALAKKSSQTKKKKKAFNSPKTGQNKTVQYPSDILENASVELFLDANKLPTPVVEQVAQINDNSELELTSVVENTFPAQDIVHTVTVKRKRGKSQPNCALKEHSMSNIASVKSPYEAENSGEELDQRYSKAKPMCNTCGKVFSEASSLRRHMRIHKGVKPYVCHLCGKAFTQCNQLKTHVRTHTGEKPYKCELCDKGFAQKCQLVFHSRMHHGEEKPYKCDVCNLQFATSSNLKIHARKHSGEKPYVCDRCGQRFAQASTLTYHVRRHTGEKPYVCDTCGKAFAVSSSLITHSRKHTGEKPYICGICGKSFISSGELNKHFRSHTGERPFICELCGNSYTDIKNLKKHKTKVHSGADKTLDSSAEDHTLSEQDSIQKSPLSETMDVKPSDMTLPLALPLGTEDHHMLLPVTDTQSPTSDTLLRSTVNGYSEPQLIFLQQLY
B3: ATF2 (protein, UniProt P16951 1-487, looked up)
Cyclic AMP-dependent …: MSDDKPFLCTAPGCGQRFTNEDHLAVHKHKHEMTLKFGPARNDSVIVADQTPTPTRFLKNCEEVGLFNELASPFENEFKKASEDDIKKMPLDLSPLATPIIRSKIEEPSVVETTHQDSPLPHPESTTSDEKEVPLAQTAQPTSAIVRPASLQVPNVLLTSSDSSVIIQQAVPSPTSSTVITQAPSSNRPIVPVPGPFPLLLHLPNGQTMPVAIPASITSSNVHVPAAVPLVRPVTMVPSVPGIPGPSSPQPVQSEAKMRLKAALTQQHPPVTNGDTVKGHGSGLVRTQSEESRPQSLQQPATSTTETPASPAHTTPQTQNTSGRRRRAANEDPDEKRRKFLERNRAAASRCRQKRKVWVQSLEKKAEDLSSLNGQLQSEVTLLRNEVAQLKQLLLAHKDCPVTAMQKKSGYHTADKDDSSEDLSVPSSPHTEAIQHSSVSTSNGVSSTSKAEAVATSVLTQMADQSTEPALSQIVMAPPSQAQPSGS
B4: MYOG (protein, UniProt P15173 1-224, looked up)
Myogenin: MELYETSPYFYQEPRFYDGENYLPVHLQGFEPPGYERTELTLSPEAPGPLEDKGLGTPEHCPGQCLPWACKVCKRKSVSVDRRRAATLREKRRLKKVNEAFEALKRSTLLNPNQRLPKVEILRSAIQYIERLQALLSSLNQEERDLRYRGGGGPQPGVPSECSSHSASCSPEWGSALEFSANPGDHLLTADPTDAHNLHSLTSIVDSITVEDVSVAFPDETMPN
B5: MXD4 (protein, UniProt Q14582 1-209, looked up)
Max dimerization protein 4: MELNSLLILLEAAEYLERRDREAEHGYASVLPFDGDFAREKTKAAGLVRKAPNNRSSHNELEKHRRAKLRLYLEQLKQLVPLGPDSTRHTTLSLLKRAKVHIKKLEEQDRRALSIKEQLQQEHRFLKRRLEQLSVQSVERVRTDSTGSAVSTDDSEQEVDIEGMEFGPGELDSVGSSSDADDHYSLQSGTGGDSGFGPHCRRLGRPALS
B6: NFATC1 (protein, UniProt O95644 1-943, looked up)
Nuclear factor of activated …: MPSTSFPVPSKFPLGPAAAVFGRGETLGPAPRAGGTMKSAEEEHYGYASSNVSPALPLPTAHSTLPAPCHNLQTSTPGIIPPADHPSGYGAALDGGPAGYFLSSGHTRPDGAPALESPRIEITSCLGLYHNNNQFFHDVEVEDVLPSSKRSPSTATLSLPSLEAYRDPSCLSPASSLSSRSCNSEASSYESNYSYPYASPQTSPWQSPCVSPKTTDPEEGFPRGLGACTLLGSPRHSPSTSPRASVTEESWLGARSSRPASPCNKRKYSLNGRQPPYSPHHSPTPSPHGSPRVSVTDDSWLGNTTQYTSSAIVAAINALTTDSSLDLGDGVPVKSRKTTLEQPPSVALKVEPVGEDLGSPPPPADFAPEDYSSFQHIRKGGFCDQYLAVPQHPYQWAKPKPLSPTSYMSPTLPALDWQLPSHSGPYELRIEVQPKSHHRAHYETEGSRGAVKASAGGHPIVQLHGYLENEPLMLQLFIGTADDRLLRPHAFYQVHRITGKTVSTTSHEAILSNTKVLEIPLLPENSMRAVIDCAGILKLRNSDIELRKGETDIGRKNTRVRLVFRVHVPQPSGRTLSLQVASNPIECSQRSAQELPLVEKQSTDSYPVVGGKKMVLSGHNFLQDSKVIFVEKAPDGHHVWEMEAKTDRDLCKPNSLVVEIPPFRNQRITSPVHVSFYVCNGKRKRSQYQRFTYLPANVPIIKTEPTDDYEPAPTCGPVSQGLSPLPRPYYSQQLAMPPDPSSCLVAGFPPCPQRSTLMPAAPGVSPKLHDLSPAAYTKGVASPGHCHLGLPQPAGEAPAVQDVPRPVATHPGSPGQPPPALLPQQVSAPPSSSCPPGLEHSLCPSSPSPPLPPATQEPTCLQPCSPACPPATGRPQHLPSTVRRDESPTAGPRLLPEVHEDGSPNLAPIPVTVKREPEELDQLYLDDVNEIIRNDLSSTSTHS
B7: NEUROG2 (protein, UniProt Q9H2A3 1-272, looked up)
Neurogenin-2: MFVKSETLELKEEEDVLVLLGSASPALAALTPLSSSADEEEEEEPGASGGARRQRGAEAGQGARGGVAAGAEGCRPARLLGLVHDCKRRPSRARAVSRGAKTAETVQRIKKTRRLKANNRERNRMHNLNAALDALREVLPTFPEDAKLTKIETLRFAHNYIWALTETLRLADHCGGGGGGLPGALFSEAVLLSPGGASAALSSSGDSPSPASTWSCTNSPAPSSSVSSNSTSPYSCTLSPASPAGSDMDYWQPPPPDKHRYAPHLPIARDCI
B8: NEUROD4 (protein, UniProt Q9HD90 1-331, looked up)
Neurogenic differentiation …: MSKTFVKSKEMGELVNTPSWMDKGLGSQNEVKEEESRPGTYGMLSSLTEEHDSIEEEEEEEEDGEKPKRRGPKKKKMTKARLERFRARRVKANARERTRMHGLNDALDNLRRVMPCYSKTQKLSKIETLRLARNYIWALSEVLETGQTPEGKGFVEMLCKGLSQPTSNLVAGCLQLGPQSVLLEKHEDKSPICDSAISVHNFNYQSPGLPSPPYGHMETHLLHLKPQVFKSLGESSFGSHLPDCSTPPYEGPLTPPLSISGNFSLKQDGSPDLEKSYSFMPHYPSSSLSSGHVHSTPFQAGTPRYDVPIDMSYDSYPHHGIGTQLNTVFTE
B9: NEUROG3 (protein, UniProt Q9Y4Z2 1-214, looked up)
Neurogenin-3: MTPQPSGAPTVQVTRETERSFPRASEDEVTCPTSAPPSPTRTRGNCAEAEEGGCRGAPRKLRARRGGRSRPKSELALSKQRRSRRKKANDRERNRMHNLNSALDALRGVLPTFPDDAKLTKIETLRFAHNYIWALTQTLRIADHSLYALEPPAPHCGELGSPGGSPGDWGSLYSPVSQAGSLSPAASLEERPGLLGATFSACLSPGSLAFSDFL
B10: NEUROD (protein, UniProt Q13562 1-356, looked up)
Neurogenic differentiation …: MTKSYSESGLMGEPQPQGPPSWTDECLSSQDEEHEADKKEDDLETMNAEEDSLRNGGEEEDEDEDLEEEEEEEEEDDDQKPKRRGPKKKKMTKARLERFKLRRMKANARERNRMHGLNAALDNLRKVVPCYSKTQKLSKIETLRLAKNYIWALSEILRSGKSPDLVSFVQTLCKGLSQPTTNLVAGCLQLNPRTFLPEQNQDMPPHLPTASASFPVHPYSYQSPGLPSPPYGTMDSSHVFHVKPPPHAYSAALEPFFESPLTDCTSPSFDGPLSPPLSINGNFSFKHEPSAEFEKNYAFTMHYPAATLAGAQSHGSIFSGTAAPRCEIPIDNIMSFDSHSHHERVMSAQLNAIFHD
B11: NEUROD3 (protein, UniProt Q92886 1-237, looked up)
Neurogenin-1: MPARLETCISDLDCASSSGSDLSGFLTDEEDCARLQQAASASGPPAPARRGAPNISRASEVPGAQDDEQERRRRRGRTRVRSEALLHSLRRSRRVKANDRERNRMHNLNAALDALRSVLPSFPDDTKLTKIETLRFAYNYIWALAETLRLADQGLPGGGARERLLPPQCVPCLPGPPSPASDAESWGSGAAAASPLSDPSSPAASEDFTYRPGDPVFSFPSLPKDLLHTTPCFIPYH
B12: MYCBP (protein, UniProt Q99417 2-103, looked up)
c-Myc-binding protein: AHYKAADSKREQFRRYLEKSGVLDTLTKVLVALYEEPEKPNSALDFLKHHLGAATPENPEIELLRLELAEMKEKYEAIVEENKKLKAKLAQYEPPQEEKRAE
B13: MYSM1 (protein, UniProt Q5VVJ2 1-828, looked up)
Deubiquitinase MYSM1: MAAEEADVDIEGDVVAAAGAQPGSGENTASVLQKDHYLDSSWRTENGLIPWTLDNTISEENRAVIEKMLLEEEYYLSKKSQPEKVWLDQKEDDKKYMKSLQKTAKIMVHSPTKPASYSVKWTIEEKELFEQGLAKFGRRWTKISKLIGSRTVLQVKSYARQYFKNKVKCGLDKETPNQKTGHNLQVKNEDKGTKAWTPSCLRGRADPNLNAVKIEKLSDDEEVDITDEVDELSSQTPQKNSSSDLLLDFPNSKMHETNQGEFITSDSQEALFSKSSRGCLQNEKQDETLSSSEITLWTEKQSNGDKKSIELNDQKFNELIKNCNKHDGRGIIVDARQLPSPEPCEIQKNLNDNEMLFHSCQMVEESHEEEELKPPEQEIEIDRNIIQEEEKQAIPEFFEGRQAKTPERYLKIRNYILDQWEICKPKYLNKTSVRPGLKNCGDVNCIGRIHTYLELIGAINFGCEQAVYNRPQTVDKVRIRDRKDAVEAYQLAQRLQSMRTRRRRVRDPWGNWCDAKDLEGQTFEHLSAEELAKRREEEKGRPVKSLKVPRPTKSSFDPFQLIPCNFFSEEKQEPFQVKVASEALLIMDLHAHVSMAEVIGLLGGRYSEVDKVVEVCAAEPCNSLSTGLQCEMDPVSQTQASETLAVRGFSVIGWYHSHPAFDPNPSLRDIDTQAKYQSYFSRGGAKFIGMIVSPYNRNNPLPYSQITCLVISEEISPDGSYRLPYKFEVQQMLEEPQWGLVFEKTRWIIEKYRLSHSSVPMDKIFRRDSDLTCLQKLLECMRKTLSKVTNCFMAEEFLTEIENLFLSNYKSNQENGVTEENCTKELLM

Tested on: HEK293FT cells transfected with TF library
Assay: Screening of TF condensates based on fluorescent puncta
Type: cell-based
Settings: Figure 1B numerical data; TF library screen, one value per transcriptional factor
Outline: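 Cells were seeded onto plasmid/PEI-loaded wells (plasmid 1.6 μg/ml final) and grown 60 h. Medium with or without glucose followed for 12 h. Fixed, permeabilized cells were stained against Flag or GAL4 tags, and condensate puncta were quantified from 50 random fields per well.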

Row | Molecule | Z score of condensed fraction
1 | B1 | -0.9514
2 | B2 | -0.5885
3 | B3 | 2.014
4 | B4 | 0.6311
5 | B5 | -0.9909
6 | B6 | -0.245
7 | B7 | -1.044
8 | B8 | 0.614
9 | B9 | 1.376
10 | B10 | 0.06185
11 | B11 | -0.2856
12 | B12 | -0.1227
13 | B13 | -0.7244
